Experimental data taken from article PMC9083066.

System: T1, FabT (Enterococcus faecalis), ORF:b010fabc
T1 sequence: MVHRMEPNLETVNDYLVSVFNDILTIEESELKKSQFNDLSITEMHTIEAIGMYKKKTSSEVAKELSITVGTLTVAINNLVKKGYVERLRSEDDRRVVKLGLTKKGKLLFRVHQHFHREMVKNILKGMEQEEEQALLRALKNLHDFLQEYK
Assay: EMSA
Settings: 10 nM DNA, 0.1 uM FabT, 0-10 uM acyl-ACP, 10 mM Tris-HCl pH 7.0, 50 mM NaCl, 1 mM EDTA, 1 mM DTT, 10% glycerol, room temperature, 30 min; 6% native PAGE

Sequence: GTCAGGATCCGTCGACATCTGTATTCACCTCCACTGCTTTTGAAAAAAGGTTCTTTCTTTTACTAAAACGCTAAGATACATTGTACTCACAATTTGGGTATTTGTCCATCTTTTTTTCATTTGAGTAACAAACTGATGTCAAGACAATTGCAAATTACTGCAGAATTCTGAC (double strand) [E. faecalis acpB promoter]
- binding: no binding
